Data as given in patent US10239925B2, “Peptides and combination of peptides for use in immunotherapy against ovarian cancer and other cancers” (IMMATICS BIOTECHNOLOGIES GMBH, priority 2015, dated 2019).

Biological target: HLA-A*02:01 (Homo sapiens, UniProt P04439, D140Y/D185E/D98H/E176V/E277Q/G131W/G231S/I119V/I121R/I166T/I218V/L300P/L318F/N151K/N90K/P208A/P217A/Q86G/Q94H/R138H/R169H/T345S)
Test: MHC binding assay (UV-ligand exchange, anti-β2m ELISA, peptide exchange yield)
Details: binding to HLA-A*02:01
Outline: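 Yield of stabilized complexes quantified via the β2m light chain in an ELISA (streptavidin capture, 100-fold diluted monomers, HRP anti-β2m 2 ug/ml at 37 °C, TMB, A450). The complexes come from UV-triggered replacement of a photocleavable ligand by the candidate peptide.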

Substance | Peptide exchange (MHC class I binding score, peptide exchange yield)
255 (VLASYNLTV; listed as Homo sapiens) [compound 255] | “+++” (>50 = +++)
256 (FLPPEHTIVYI; listed as Homo sapiens) [compound 256] | “+++” (>50 = +++)
257 (SIFSAFLSV; listed as Homo sapiens) [compound 257] | “+++” (>50 = +++)
258 (ELAERVPAI; listed as Homo sapiens) [compound 258] | “++” (>20% = ++)
261 (YVLEFLEEI; listed as Homo sapiens) [compound 261] | “++” (>20% = ++)
262 (LLWGDLIWL; listed as Homo sapiens) [compound 262] | “+++” (>50 = +++)
263 (LLVSNLDFGV; listed as Homo sapiens) [compound 263] | “+++” (>50 = +++)
264 (SLQEQLHSV; listed as Homo sapiens) [compound 264] | “+++” (>50 = +++)
265 (LLFGGTKTV; listed as Homo sapiens) [compound 265] | “++” (>20% = ++)
266 (KITDTLIHL; listed as Homo sapiens) [compound 266] | “+++” (>50 = +++)
267 (ALQDFLLSV; listed as Homo sapiens) [compound 267] | “+++” (>50 = +++)
269 (RVLEVGALQAV; listed as Homo sapiens) [compound 269] | “++” (>20% = ++)
270 (LLLDEEGTFSL; listed as Homo sapiens) [compound 270] | “++” (>20% = ++)
271 (LVYPLELYPA; listed as Homo sapiens) [compound 271] | “+++” (>50 = +++)
272 (ALGNTVPAV; listed as Homo sapiens) [compound 272] | “+++” (>50 = +++)
273 (NLFQSVREV; listed as Homo sapiens) [compound 273] | “++” (>20% = ++)
274 (SLLFSLFEA; listed as Homo sapiens) [compound 274] | “++” (>20% = ++)
275 (YLVYILNEL; listed as Homo sapiens) [compound 275] | “++” (>20% = ++)
276 (ALFTFSPLTV; listed as Homo sapiens) [compound 276] | “+++” (>50 = +++)
277 (LLPPLESLATV; listed as Homo sapiens) [compound 277] | “++” (>20% = ++)
278 (QLLDVVLTI; listed as Homo sapiens) [compound 278] | “++” (>20% = ++)
279 (ALWGGTQPLL; listed as Homo sapiens) [compound 279] | “++” (>20% = ++)
280 (VLPDPEVLEAV; listed as Homo sapiens) [compound 280] | “+++” (>50 = +++)
281 (ILRESTEEL; listed as Homo sapiens) [compound 281] | “+++” (>50 = +++)
282 (LLADVVPTT; listed as Homo sapiens) [compound 282] | “+++” (>50 = +++)

Substance | Peptide exchange (MHC class I binding score, peptide exchange yield)
284 (ILLSQTTGV; listed as Homo sapiens) [compound 284] | “+++” (>50 = +++)
285 (QLLHVGVTV; listed as Homo sapiens) [compound 285] | “+++” (>50 = +++)
286 (YLFPGIPEL; listed as Homo sapiens) [compound 286] | “+++” (>50 = +++)
287 (FLNEFFLNV; listed as Homo sapiens) [compound 287] | “+++” (>50 = +++)
288 (NLINEINGV; listed as Homo sapiens) [compound 288] | “+++” (>50 = +++)
289 (VLLEIEDLQV; listed as Homo sapiens) [compound 289] | “++++” (>75% = ++++)
295 (VLDRESPNV; listed as Homo sapiens) [compound 295] | “+++” (>50 = +++)
296 (FMEGAIIYV; listed as Homo sapiens) [compound 296] | “+++” (>50 = +++)
297 (VLADIELAQA; listed as Homo sapiens) [compound 297] | “+++” (>50 = +++)
298 (VMITKLVEV; listed as Homo sapiens) [compound 298] | “+++” (>50 = +++)
299 (YLLETSGNL; listed as Homo sapiens) [compound 299] | “+++” (>50 = +++)
300 (ALLGQTFSL; listed as Homo sapiens) [compound 300] | “+++” (>50 = +++)
301 (FLVEDLVDSL; listed as Homo sapiens) [compound 301] | “+++” (>50 = +++)
302 (ALLQEGEVYSA; listed as Homo sapiens) [compound 302] | “+++” (>50 = +++)
303 (AILPQLFMV; listed as Homo sapiens) [compound 303] | “++++” (>75% = ++++)
304 (MTLGQIYYL; listed as Homo sapiens) [compound 304] | “+++” (>50 = +++)
305 (SIANFSEFYV; listed as Homo sapiens) [compound 305] | “++++” (>75% = ++++)
306 (ALVNVQIPL; listed as Homo sapiens) [compound 306] | “+++” (>50 = +++)
307 (ALPVSLPQI; listed as Homo sapiens) [compound 307] | “+++” (>50 = +++)
308 (SQYSGQLHEV; listed as Homo sapiens) [compound 308] | “+++” (>50 = +++)
309 (GLFDGVPTTA; listed as Homo sapiens) [compound 309] | “+++” (>50 = +++)
310 (FLVDTPLARA; listed as Homo sapiens) [compound 310] | “++++” (>75% = ++++)
311 (RLYTGMHTV; listed as Homo sapiens) [compound 311] | “+++” (>50 = +++)
312 (IISDLTIAL; listed as Homo sapiens) [compound 312] | “+++” (>50 = +++)
313 (VLFDDELLMV; listed as Homo sapiens) [compound 313] | “+++” (>50 = +++)
